Assay results reported in patent US20150056205A1, “STEROID SPARING AGENTS AND METHODS OF USING SAME” (BIOGEN IDEC MA INC., priority 2004, published 2015).

Legend:
[1] = system: subjects diagnosed with chronic active Crohn's disease; experiment: placebo-controlled single infusion study in chronic active Crohn's disease; type: in vivo
Description: Earlier studies in Crohn's disease and ulcerative colitis are summarized below. One study was a randomized, double-blind, placebo-controlled, safety, tolerability, and efficacy study of a single infusion of intravenous 3 mg/kg natalizumab in male and female subjects diagnosed with chronic active Crohn's disease. Thirty subjects were enrolled; 18 were treated with natalizumab (3 mg/kg) and 12 with placebo.

[2] = system: pregnant cynomolgus monkeys; experiment: follow-up reproductive toxicity study; type: in vivo, cynomolgus monkey; settings: two in the control
Description: In mice, there is evidence that α4 integrin and VCAM-1 play a role in placental and cardiac development, and they may also play a wider role in fetal development. There is, therefore, a risk of an abortifacient effect or teratogenicity if α4 integrin is blocked by natalizumab. A preliminary reproductive toxicity study exposed groups of five pregnant cynomolgus monkeys to repeated intravenous doses of 0.06, 0.3, or 30 mg/kg natalizumab. One of five pregnant females in the 30 mg/kg group aborted at Day 31 of gestation after receiving five doses of natalizumab. Because the overall rate of abortion fell within the rate of spontaneous abortion in this species, the event was not believed to be related to natalizumab. An ongoing follow-up reproductive toxicity study has exposed groups of 10 to 15 pregnant cynomolgus monkeys to repeated intravenous doses of 3, 10, or 30 mg/kg. Embryo deaths have occurred at similar rates in all treatment groups: two in the control, one in the 3 mg/kg, two in the 10 mg/kg and two in the 30 mg/kg groups respectively. As a precaution, women of childbearing potential must utilize effective contraception throughout the duration of the study and for at least 3 months after the last infusion of study drug, and must have a negative pregnancy test at the time of each natalizumab dosing.

[3] = system: subjects with moderately to severely active Crohn's disease; experiment: placebo-controlled one or two infusion study in moderately to severely active Crohn's disease; type: in vivo; settings: for subjects withdrawn due to adverse events: placebo 2; for subjects reporting a serious adverse event: placebo 9
Description: Another earlier study was a double-blind, placebo-controlled, parallel group, multicenter, efficacy, safety, and tolerability study of either one or two intravenous infusions of placebo, 3 or 6 mg/kg natalizumab in subjects with moderately to severely active Crohn's disease. […] Sixty-eight subjects were randomized to a single infusion of 3 mg/kg, 66 to two infusions of 3 mg/kg at a 4-week interval, 51 to two infusions of 6 mg/kg at a 4-week interval and 63 to receive placebo.

primates = settings: in vivo
Description: The inflammation was characterized by increased numbers of lymphocytes and plasma cells within the lamina propia with occasional crypt abscesses.

α4 integrin = molecular target: T1, α4 integrin (Homo sapiens, UniProt P13612); experiment: single dose pharmacokinetics and α4 integrin receptor saturation in clinical trials; type: in vivo
T1 construct: endogenous in cells; host or cells: circulating leukocytes of healthy volunteers and MS/IBD subjects (in vivo)
Description: The initial dose of natalizumab selected for clinical evaluation was based on non-clinical studies in the guinea pig Experimental Allergic Encephalitis (EAE) model. […] A single dose of 3 mg/kg appeared to provide serum concentrations of natalizumab associated with α4 integrin receptor blockade for up to approximately 3 weeks, and 6 mg/kg for about 6 weeks.
Natalizumab has been evaluated in all clinical trials to date by administration of dose adjusted for bodyweight. […] A single infusion of a higher dose of 6 mg/kg natalizumab produced α4 integrin saturation levels which were slightly higher and more prolonged (approximately 6 weeks).

[4] = system: mice, guinea pigs, and monkeys; settings: in vivo
Description: Single- and multiple-dose toxicity studies have been performed in mice, guinea pigs, and monkeys. All toxicology studies were carried out using natalizumab and included an acute study in guinea pigs, subacute studies in mouse and cynomolgus monkeys, and mutagenicity and tissue cross-reactivity studies.

[5] = system: adult subjects with Crohn's disease (CD); experiment: maintenance of clinical response and remission in Crohn's Disease, six month regimen (Example 10); type: in vivo, human
Description: This experiment was a double-blind, placebo-controlled study of the efficacy, safety, and tolerability of natalizumab in maintaining clinical response and remission in Crohn's Disease.
Natalizumab, a humanized monoclonal IgG4 antibody to α4 integrin, was evaluated in a randomized, controlled study to determine the ability of a six month regimen to maintain clinical response/remission achieved in natalizumab-treated subjects in the […] induction of response/remission study.
Loss of response was defined as a CDAI≧220 and ≧70-point increase from baseline CDAI in the second study or use of rescue intervention. Maintenance of remission was also assessed.

[6] = Week 6, two infusions of 3 mg/kg

natalizumab was tested, and the “mean CDAI scores compared to mean baseline” value ([1]; 2 and 4 weeks post-treatment, single 3 mg/kg) was “significantly decreased”, the “subjects requiring rescue therapy” value ([1]; Week 2 post-treatment, single 3 mg/kg, placebo 33%) was 11% and the “subjects withdrawn because of an adverse event” value ([1]; single 3 mg/kg) was “No subjects”. For the same substance, the “subjects reporting one serious adverse event” value ([1]; single 3 mg/kg, 18 treated) was “Six”, the safety and tolerability ([1]; single intravenous dose of 3 mg/kg, subjects with CD) was “safe and well tolerated” and the “subjects in clinical remission (CDAI<150)” value ([1]; two weeks after single 3 mg/kg intravenous infusion, placebo 8%) was 39%. The embryo deaths ([2]; 3 mg/kg repeated intravenous doses) was “one”, the embryo deaths ([2]; 10 mg/kg repeated intravenous doses) was “two” and the embryo deaths ([2]; 30 mg/kg repeated intravenous doses) was “two”. For the same substance, the “remission rate (CDAI<150)” value [3, 6] was 46%, the “response rate (≧70 point drop in CDAI)” value [3, 6] was 73% and the “response rate (≧100 drop in CDAI)” value [3, 6] was 56%. For the same substance, the “remission rates (CDAI<150)” value ([3]; Weeks 8 and 12, two infusions of 3 mg/kg and two infusions of 6 mg/kg) was 41-43%, the C-reactive protein ([3]; in vivo) was “decreases” and the “quality of life, Inflammatory Bowel Disease Questionnaire” value ([3]; in vivo) was “Statistically significant improvements”. For the same substance, the “subjects withdrawn due to adverse events” value ([3]; single 3.0 mg/kg infusion) was 1, the “subjects reporting a serious adverse event” value ([3]; single 3.0 mg/kg infusion) was 8 and the safety and tolerability ([3]; subjects with active CD) was “safe and well tolerated”. For the same substance, the “subjects withdrawn due to adverse events” value ([3]; two 3 mg/kg infusions) was 2, the “subjects reporting a serious adverse event” value ([3]; two 3 mg/kg infusions) was 8 and the “subjects withdrawn due to adverse events” value ([3]; two 6 mg/kg infusions) was 3. The “subjects reporting a serious adverse event” value ([3]; two 6 mg/kg infusions) was 7, the “treated animals with minimal to mild lymphoplasmacytic inflammation of the mucosa of the cecum, colon, and/or rectum” value (primates) was “about half” and the “time serum concentrations, receptor saturation and inhibition of cell adhesion are maintained” value (α4 integrin; 3 mg/kg infusion) was 3-4 weeks. For the same substance, the “natalizumab serum concentrations maintained” value (α4 integrin; 3 mg/kg infusion, healthy volunteers, subjects with MS and IBD) was 2.5 to 3.0 µg/mL, the “clearance, dependence on bodyweight” value (α4 integrin; human, in vivo) was “largely independent of bodyweight” and the “duration of serum concentrations associated with α4 integrin receptor blockade” value (α4 integrin; single dose of 3 mg/kg) was “approximately 3 weeks”. For the same substance, the “duration of serum concentrations associated with α4 integrin receptor blockade” value (α4 integrin; single dose of 6 mg/kg) was “about 6 weeks”, the “duration of α4 integrin saturation” value (α4 integrin; single infusion of 6 mg/kg) was “approximately 6 weeks” and the “clinical or postmortem evidence of toxicity” value [4] was “did not demonstrate clinical or postmortem evidence of significant toxicity”. The “subjects taking steroids in the first study who were withdrawn from steroids” value ([5]; 300 mg monthly, placebo 25%) was 55%, the “subjects who maintained clinical remission” value ([5]; at 6 months, 300 mg monthly, placebo 26%) was 44% and the “subjects continuing to meet the criteria for clinical response” value ([5]; at 6 months, ITT population, 300 mg monthly, placebo 29%) was 61%. The tolerability ([5]; monthly administration for 6 months) was “well tolerated” and the “rates of serious and non-serious adverse events between treatment groups” value ([5]; versus placebo) was “No notable difference”.
